Source: publication doi:10.1101/2022.05.14.22275020, “A homozygous p.(Arg371Ser) mutation in FICD de-regulates AMPylation of the human endoplasmic reticulum chaperone BiP causing infancy-onset diabetes and severe neurodevelopmental delay” (medRxiv, 2022)
Numbering of substitutions follows the chain as printed. Numbers in names are those of the source.

B1: wild-type FICD, structured luminal region (residues 104-445) (enzyme, human, UniProt Q9BVA6 104-445, looked up)
chain: LEARAALNQALEMKRQGKREKAQKLFMHALKMDPDFVDALTEFGIFSEEDKDIIQADYLYTRALTISPYHEKALVNRDRTLPLVEEIDQRYFSIIDSKVKKVMSIPKGNSALRRVMEETYYHHIYHTVAIEGNTLTLSEIRHILETRYAVPGKSLEEQNEVIGMHAAMKYINTTLVSRIGSVTISDVLEIHRRVLGYVDPVEAGRFRTTQVLVGHHIPPHPQDVEKQMQEFVQWLNSEEAMNLHPVEFAALAHYKLVYIHPFIDGNGRTSRLLMNLILMQAGYPPITIRKEQRSDYYHVLEAANEGDVRPFIRFIAKCTETTLDTLLFATTEYSVALPEAQP
notes: human FICD (Fic domain-containing protein), structured luminal region, residues 104-445; purification as in Perera et al., 2019 and 2021; also called FICD^WT; WT; source: E. coli T7 Express lysY/Iq (NEB), purified (Ni-NTA, Ulp1 cleavage, anion exchange, gel filtration); not shown: His6, N-terminal, cleaved; SUMO, N-terminal, cleaved
B2: FICD^R371S, structured luminal region (residues 104-445) (enzyme, human, UniProt Q9BVA6 104-445, looked up)
chain: B1 chain with R268S
notes: human FICD, structured luminal region, residues 104-445, with the patient variant p.(Arg371Ser) (NM_007076.2:c.1113G>C); Rare human variant found in patients; also called Arg371Ser mutant FICD; p.(Arg371Ser); source: E. coli T7 Express lysY/Iq (NEB), purified (Ni-NTA, Ulp1 cleavage, anion exchange, gel filtration); not shown: His6, N-terminal, cleaved; SUMO, N-terminal, cleaved

Molecular target: the molecule itself
Assay: SEC; analytical SEC, Agilent Bio SEC-3 HPLC column, TNT buffer (25 mM Tris pH 8.0, 150 mM NaCl, 1 mM TCEP), 25 °C; proteins diluted to a range of concentrations (given in Figure 3a) and incubated at least 1 h at room temperature; dimer against monomer

| Protein | stoichiometry N |
| --- | --- |
| B1 | 2 |
| B2 | 2 |
